# T1: p73 (Homo sapiens, UniProt O15350)
# T1 construct: expressed in transfected cells; host or cells: COS7
# T1 sequence (O15350 1-499 isoform O15350-2): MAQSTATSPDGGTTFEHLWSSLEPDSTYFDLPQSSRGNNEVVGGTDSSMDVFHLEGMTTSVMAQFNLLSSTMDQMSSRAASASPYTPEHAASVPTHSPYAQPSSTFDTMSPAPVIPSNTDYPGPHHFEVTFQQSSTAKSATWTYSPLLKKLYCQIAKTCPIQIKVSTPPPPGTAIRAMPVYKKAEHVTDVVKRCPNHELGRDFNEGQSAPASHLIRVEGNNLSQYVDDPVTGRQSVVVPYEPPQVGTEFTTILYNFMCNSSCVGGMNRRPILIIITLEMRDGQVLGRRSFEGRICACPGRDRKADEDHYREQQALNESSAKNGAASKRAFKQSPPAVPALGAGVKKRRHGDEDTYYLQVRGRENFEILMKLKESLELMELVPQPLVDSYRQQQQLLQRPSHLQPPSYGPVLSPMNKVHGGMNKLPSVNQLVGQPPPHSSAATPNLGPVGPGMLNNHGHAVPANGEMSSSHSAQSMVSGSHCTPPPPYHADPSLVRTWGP
# T2: p73 (Homo sapiens, UniProt O15350)
# T2 construct: expressed in transfected cells; host or cells: COS7
# T2 sequence (O15350 1-636): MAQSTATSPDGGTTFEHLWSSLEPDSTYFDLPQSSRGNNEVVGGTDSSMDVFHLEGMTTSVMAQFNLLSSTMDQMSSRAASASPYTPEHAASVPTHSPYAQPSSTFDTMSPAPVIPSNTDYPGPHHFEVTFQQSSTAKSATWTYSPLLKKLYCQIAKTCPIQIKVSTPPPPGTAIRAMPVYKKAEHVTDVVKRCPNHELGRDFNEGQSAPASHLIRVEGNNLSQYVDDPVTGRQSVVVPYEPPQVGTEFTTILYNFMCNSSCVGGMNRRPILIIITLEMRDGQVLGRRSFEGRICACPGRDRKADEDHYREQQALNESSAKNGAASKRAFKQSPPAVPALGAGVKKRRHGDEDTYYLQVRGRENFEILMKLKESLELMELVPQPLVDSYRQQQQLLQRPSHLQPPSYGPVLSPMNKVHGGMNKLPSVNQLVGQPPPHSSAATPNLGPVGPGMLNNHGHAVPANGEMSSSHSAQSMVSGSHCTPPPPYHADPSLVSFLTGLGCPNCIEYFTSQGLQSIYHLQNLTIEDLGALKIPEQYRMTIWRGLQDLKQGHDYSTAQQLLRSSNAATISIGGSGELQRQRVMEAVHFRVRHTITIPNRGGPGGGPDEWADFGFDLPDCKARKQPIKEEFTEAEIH
# B1: IKK-α: IKK-α protein, amino acid sequence SEQ ID NO: 24, expressed from plasmid; apoptosis enhancer (protein, listed as Homo sapiens)
# chain: MERPPGLRPGAGGPWEMRERLGTGGFGNVCLYQHRELDLKIAIKSCRLELSTKNRERWCHEIQIMKKLNHANVVKACDVPEELNILIHDVPLLAMEYCSGGDLRKLLNKPENCCGLKESQILSLLSDIGSGIRYLHENKIIHRDLKPENIVLQDVGGKIIHKIIDLGYAKDVDQGSLCTSFVGTLQYLAPELFENKPYTATVDYWSFGTMVFECIAGYRPFLHHLQPFTWHEKIKKKDPKCIFACEEMSGEVRFSSHLPQPNSLCSLIVEPMENWLQLMLNWDPQQRGGPVDLTLKQPRCFVLMDHILNLKIVHILNMTSAKIISFLLPPDESLHSLQSRIERETGINTGSQELLSETGISLDPRKPASQCVLDGVRGCDSYMVYLFDKSKTVYEGPFASRSLSDCVNYIVQDSKIQLPIIQLRKVWAEAVHYVSGLKEDYSRLFQGQRAAMLSLLRYNANLTKMKNTLISASQQLKAKLEFFHKSIQLDLERYSEQMTYGISSEKMLKAWKEMEEKAIHYAEVGVIGYLEDQIMSLHAEIMELQKSPYGRRQGDLMESLEQRAIDLYKQLKHRPSDHSYSDSTEMVKIIVHTVQSQDRVLKELFGHLSKLLGCKQKIIDLLPKVEVALSNIKEADNTVMFMQGKRQKEIWHLLKIACTQSSARSLVGSSLEGAVTPQTSAWLPPTSAEHDHSLSCVVTPQDGETSAQMIEENLNCLGHLSTIIHEANEEQGNSMMNLDWSWLTE
# Experiments:
# [1] = target: T1, p73; experiment: p73 protein level (stabilization) by immunoblot in cotransfected COS7 cells; type: cell-based; details: COS7 cotransfection
# Experimental: (§1) Cells were transiently transfected with a total of 2 μg of expression plasmids. After 48 hours of the transfection, the cells were washed with ice-cold PBS and suspended in lysis buffer (pH 8.0; which contained 25 mM Tris-Cl, 137 mM sodium chloride, 1% Triton X-100, 1 mM phenylmethylsulfonyl fluoride (PMSF), and protease inhibitor mix (Roche Molecular Biochemicals)), followed by brief sonication. After centrifugation at 15000 rpm for 10 minutes, the supernatant was collected and assayed for protein concentrations by the Bradford assay (Bio-Rad). Equal amounts of lysates (protein amount: 50 μg) from the whole cells were denatured by boiling in Laemmli SDS-sample buffer, then separated on 10% SDS-polyacrylamide gel (SDS-PAGE), and transferred at room temperature for 1 hour to polyvinylidene difluoride (PVDF) membranes (Immobilon-P; Millipore) in Tris-glycine buffer containing 10% methanol. The membranes were blocked at room temperature for 1 hour with Tris-buffered saline (TBS-T) containing 5% skim milk and 0.1% Tween 20.
# (§2) As previously reported, some protein kinases (e.g., c-Abl and PKCδ) that interact with p73 can stabilize p73. To confirm whether IKK-α influenced the stabilization of p73, COS7 cells were transfected with a constant amount of HA-p73α expression plasmid together with or without varying amounts of IKK-α expression plasmids and examined for HA-p73α protein levels. […] Next, whether IKK-β influenced the stabilization of p73 and p53 was investigated by transient transfection.
# [2] = target: T2, p73; experiment: as above; type: cell-based; details: COS7 cotransfection (FIG. 14, 15, 29)
# Experimental: as §1, §2
# [3] = test system: p53; experiment: p53 protein level (stabilization) by immunoblot in cotransfected COS7 cells; type: cell-based; details: COS7 cotransfection (FIG. 14, 15)
# Experimental: as §1
# As previously reported, some protein kinases (e.g., c-Abl and PKCδ) that interact with p73 can stabilize p73. To confirm whether IKK-α influenced the stabilization of p73, COS7 cells were transfected with a constant amount of HA-p73α expression plasmid together with or without varying amounts of IKK-α expression plasmids and examined for HA-p73α protein levels. […]
# [4] = test system: p73; experiment: Luciferase reporter assay, p73-dependent transcriptional activation in H1299 cells; type: cell-based, human
# Experimental: H1299 cells deficient in p53 were seeded at a density of 5×10^4 cells/well onto a 12-well tissue culture dish and transiently transfected with 100 ng of luciferase reporter construct (which carried a p53/p73-responsive element derived from a p21^WAF1, Bax, or MDM2 promoter), 10 ng of pRL-TK Renilla luciferase cDNA, and 25 ng of given expression plasmid (p53, HA-p73α, or HA-p73β) together with or without varying amounts of IKK-α or FLAG-IKK-β expression plasmids. The total amount of DNA per transfection was kept constant (510 ng) with a pcDNA3 empty plasmid. After 48 hours from the transfection, the cells were washed twice with ice-cold PBS and suspended in passive lysis buffer (Promega). Both firefly and Renilla luciferase activities were assayed by use of dual-luciferase reporter assay system (Promega) according to the instruction. […] intensity was measured with TD-20 luminometer (Turner Design). The firefly luciferase signal was normalized based on the Renilla luciferase signal. Results obtained from at least 3 transfections were indicated by mean value±standard deviation.
# To explore the functional implication of interaction between IKK-α and p73, the effect of IKK-α on p73-mediated transcriptional activation was first examined. H1299 cells deficient in p53 were transfected with a HA-p73α or HA-p73β expression plasmid and a luciferase reporter construct under the control of a p21^WAF1, Bax, or MDM2 promoter together with or without varying amounts of IKK-α expression plasmids. […] By contrast, increase in p53-responsive reporter gene activity was not induced by IKK-α (FIG. 22). To examine the specificity of p73-dependent transcriptional activation mediated by IKK-α, whether IKK-β enhanced p73 transcriptional activity to p53/p73-responsive promoters was confirmed.
molecule,measurement,setting,value
B1,stabilization of HA-p73β,[1],stabilized by IKK-α at a degree lower than that of HA-p73α
same,amount of HA-p73α,[2],remarkably increased the amount of HA-p73α
same,stabilization of p53,[3],no detectable effect on the stabilization of FLAG-p53
same,luciferase activity without p73,"[4]; H1299, IKK-α alone",almost no effect on luciferase activity
same,"p73-dependent transcriptional activation of p21WAF1, Bax, MDM2 promoter reporters","[4]; H1299, coexpression with HA-p73α or HA-p73β (FIG. 20, 21, 23)",Remarkable increase in p73-dependent transcriptional activation was dose-dependently observed
same,induction of endogenous p21WAF1 mediated by p73α,"[4]; H1299, immunoblot (FIG. 24)",remarkably up-regulated

# Reference: US7618787B2, “Method of screening compound capable of accelerating or inhibiting apoptosis, apoptosis accelarator and apoptosis inhibitor” (Hisamitsu Pharmaceutical Co., Inc., priority 2004, dated 2009)
